# B1: C-terminally Halo-tagged full-length zyxin (zyxin-Halo) [modified: Janelia Fluor 646 Halo-ligand conjugated to the Halo tag; Janelia Fluor 646 Halo-ligand conjugated to the Halo tag] [human] / C-terminally … (parent)
# chain 1: MSETVICSSRATVMLYDDGNKRWLPAGTGPQAFSRVQIYHNPTANSFRVVGRKMQPDQQVVINCAIVRGVKYNQATPNFHQWRDARQVWGLNFGSKEDAAQFAAGMASALEALEGGGPPPPPALPTWSVPNGPSPEEVEQQKRQQPGPSEHIERRVSNAGGPPAPPAGGPPPPPGPPPPPGPPPPPGLPPSGVPAAAHGAGGGPPPAPPLPAAQGPGGGGAGAPGLAAAIAGAKLRKVSKQEEASGGPTAPKAESGRSGGGGLMEEMNAMLARRRKATQVGEKTPKDESANQEEPEARVPAQSESVRRPWEKNSTTLPRMKSSSSVTTSETQPCTPSSSDYSDLQRVKQELLEEVKKELQKVKEEIIEAFVQELRKRGSP
# chain 2: MAAPRPSPAISVSVSAPAFYAPQKKFGPVVAPKPKVNPFRPGDSEPPPAPGAQRAQMGRVGEIPPPPPEDFPLPPPPLAGDGDDAEGALGGAFPPPPPPIEESFPPAPLEEEIFPSPPPPPEEEGGPEAPIPPPPQPREKVSSIDLEIDSLSSLLDDMTKNDPFKARVSSGYVPPPVATPFSSKSSTKPAAGGTAPLPPWKSPSSSQPLPQVPAPAQSQTQFHVQPQPQPKPQVQLHVQSQTQPVSLANTQPRGPPASSPAPAPKFSPVTPKFTPVASKFSPGAPGGSGSQPNQKLGHPEALSAGTGSPQPPSFTYAQQREKPRVQEKQHPVPPPAQNQNQVRSPGAPGPLTLKEVEELEQLTQQLMQDMEHPQRQNVAVNELCGRCHQPLARAQPAVRALGQLFHIACFTCHQCAQQLQGQQFYSLEGAPYCEGCYTDTLEKCNTCGEPITDRMLRATGKAYHPHCFTCVVCARPLEGTSFIVDQANRPHCVPDYHKQYAPRCSVCSEPIMPEPGRDETVRVVALDKNFHMKCYKCEDCGKPLSIEADDNGCFPLDGHVLCRKCHTARAQT
# Variants of: B1
# Assay: force reconstitution TIRF assay
# Settings: with C-terminally Halo-tagged VASP (VASP-Halo) [modified: Janelia Fluor 549 Halo-ligand conjugated to the Halo tag, images were acquired every 1 s, read off a plot
row,Variant,screen value
1,chain 2 F71A F93A F104A F114A,38

# Variants of: B1
# Assay: force reconstitution TIRF assay
# Settings: with C-terminally Halo-tagged VASP (VASP-Halo) [modified: Janelia Fluor 549 Halo-ligand conjugated to the Halo tag, images were acquired every 1 s, read off a plot
# Remark: another data set of the same source
row,Variant,screen value [s]
1,chain 2 F71A F93A F104A F114A,2.6
